Several values for one entry are separate records, joined by “and”; a condition that tells them apart may be missing. Equal values may be shown once. Read-outs that look alike come from different tables or passages of the source.
Experiments:
[1] = target: Mga4-His6 (Group A Streptococcus (Streptococcus pyogenes), M4 serotype strain GA40634); assay: AUC
[2] = target: Mga4-His6 (Group A Streptococcus (Streptococcus pyogenes), M4 serotype strain GA40634); assay: AUC; remark: listed apart in the source
[3] = target: Mga4-His6 (Group A Streptococcus (Streptococcus pyogenes), M4 serotype strain GA40634); assay: SEC

Mga4-His6 (natural protein)
Kd [1]: 6.13 µM | Kd [2]: 9.41 µM | stoichiometry N [3]: 2 and 4 and 6

Reference: article PMC3324284
